Laboratory results published in patent CN1552735A.

Tests used:
CD44抗原 (THP-1细胞系表面) [1] = biological target: CD44抗原 (THP-1细胞系表面) (UniProt P16070); assay: flow cytometry on CD44-positive THP-1 cells, HI44a 20 μl (1 mg/ml) then PBS (positive control), goat anti-mouse IgG-FITC
CD44抗原 (THP-1细胞系表面) [2] = biological target: CD44抗原 (THP-1细胞系表面) (UniProt P16070); assay: flow cytometry on THP-1 cells, HI44a 20 μl (1 mg/ml) then competitor anti-CD44 ScFv 100 μl (1 mg/ml), goat anti-mouse IgG-FITC

B1: 抗CD44单克隆抗体HI44a (antibody, IgG2a, V domains shown)
VH: QVKLQESGPGILQPSQTLSLTCSISGFSLNTSGMGVSWIRQPSGKGLEWLAHIYWDDGKRYNPSLKSRLTISKDTSRNQVFLKITSVDTADTGTYYCARRAYGINFAFDYWGQGTTVTVSS
VL: DIQLTQTAAILSVSPGERVSFSCRTSQSIGTSIHWYHQRTNGSPRLLIKSASESMSGIPSRFSGSGSGTDFTLSINSVESEDIAYYYCQQSNSWPLTFGAGTKLEIKR
- 结合阳性率 (CD44抗原 (THP-1细胞系表面) [1]): 51%
- 结合阳性率 (经抗CD44 ScFv竞争后) (CD44抗原 (THP-1细胞系表面) [2]): 27.1%
